Laboratory results published in the DeepSol protein solubility set.

Assay: soluble on expression in E. coli; label from the status in PepcDB or PDB records

Row | Sequence | soluble on expression in E. coli
1 | MGSDKIHHHHHHMIPYNQSSVSTLQTKERKIDVFSVEGNVDNETVKSFGEEWTAFDSFNETEIYNAGDNYFDIVPETILKHITNALDVGCGTGRWSYYLSEKVGFIECIDPSEAVIAASSLLSGKNNIRISKAGVDNIPFADGTFDFVFSLGVLHHVPDTKKAVHACVQKLKMNGHILLYLYYNLENRGLIFKTLFHLSNSLRWMVSKLPGAIKRFVCDLLAIVIYMPFVIVSRILIKLNLAASVVSRVPLSWYADKSFNIIRNDSLDRFGTPLEQRFSKQQITDMLIHAGCTDIVFADNAPFWRVIAKKK | not soluble
2 | KSLTLVLHRDSGSLGFNIIGGRPSVDNHDGSSSEGIFVSKIVDSGPAAKEGGLQIHDRIIEVNGRDLSRATHDQAVEAFKTAKEPIVVQVLRRT | soluble
3 | MVEMDGRKFLKLLKEEVHKAVVGKDDVIELLAIALLAEGHVMIEGVPGVAKTTIAKSFAQVLGLKFSRIQLTPDLLPADILGTVYYDQSDGLWKIKKGPIFANVVLADEINRAQPKTQSALLEAMQERQVTIEGRTFPLEKPFMVIATKNPIEFEGVYNLPEAQVDRFMLNIKIGYPTREEEVEMLRKKDRGELGEVGRIFSREQIVRMINEVKRVKTSEEVLHYLYEIVNETRKDERLIVGASPRASEHLLYASKAKAFLEGRDYVIPDDVKFLAVPVLAHRLLIKAEHEIEGIKGEDIVREILERVEVPI | soluble
4 | MINIVIPMAGAGSRFAQAGYKKPKPFIDVLGRPMICHVLDNLNMPDARFILLTRKEHFENEQETVNWIKSKYNVEFVLIDNLTEGAACTVLHAHKLIDNNTPLLIANSDQIVDMNIAEFINDSENRNLDGSVLCFKDHDTKWSYAKIDGEGLITEIREKVVISEFATVGIYYFAKGGFFVKNAIDMIIRNERVKNEFYVAPVYNFGIQEGLKFGIFNININQMHGIGTPTDLNVYIDLVQRNKLEHHHHHH | soluble
5 | MHYLSPLSLSLFLFCIEGHRESFSFFPSHDDGWAEPTARSEGKRERERERERERERGERGPTDTLSLSLSQFT | not soluble
6 | LWHASIAIVGSRQPSAGGLDHSYGFAQALAARGLGIISGMAAGIDATAHEAALSIPSGHTVAVLGTGPDVPYPARHKKLHARITTDGAVISEYPPGTQPRAAHFPQRNRIIAGLALGTLVVEAGARSGALITARLAAEAGRAVFAVPGSLHNPMTRGCHQLIRQGATLVQDIDQILED | not soluble
7 | MGSDKIHHHHHHEDPRGKLTPENFFSTQDELNMSIYALYQKVNLSQVYTNMQLPQWQGDDITTNPGSNKQPAAEMDKFAAANNNKGVKDAWNMHYAIVKAANLIIQGASKTPTTQDEINIALGQAKFWRAYAYFTLVRLWGPLPMNLDNVNDDYTKPLSPVEEVYGHIVQDLTEAEAVLPTGYSGSPRFLNGVNVYVTRQAAKSTLAAVYMAMAGWPMNKTEYYAKAAEKAKEVIEGVNRGEYEYKLDKDYKDVYAMSNNYNNETVLGINYSPFVDWAQDSELTSCNQFESLGGWGDAWGEIRFWKEFPDGPRKDATYDPKIRLKDGTLVDWWELKEDGTPVVPEHHPMFSIFSVNWDPASKVNTSAPYDYTKPASQNMCNDHRHRIIRYSEVLLWYAEAKARTGQTDELAFKCLNDVRERAGLEPLTGLSADDLAEAAYKEHGWEVAGYWVALVTRRADQFRMNRLKDTFKERAENTAVEVADGILVKESVEYTNRTWSDNLMYLPYPDMDSQKNPNLVR | not soluble
8 | MGSDKIHHHHHHMKDKVVVSQLGARMHYAVPRIFASAGRLAHFYTDICATKGWPRIVNSFPATLYPAPVKRLAGRLPKGVPTALTTVFSNFGLRSVLRHMRAKDVVEETSHAIWAGSIFSEMVARRGFHGAAGLYAFSGDALEQMQAAKQQGLWTAVEQMIAPRDVVEMLLNQEMKRFPAWAGPVQENPHARLFAEREKAEWRLADVIVCPSEFVRKNVVACGGPEDRCVVVPYGVNAAVANNRPARMPGPIRVLTVGEVGLRKGSPYVVEASRLMEGSARFRMAGRVRLADDVKQQISQWVELRGIVPRSQIAEEFRWADVFLLPSLCEGSATAVYEALAAGLPVITTENTGSVVRDGIEGFIVPVCDPEAIATAVRALAGNPELMRSMSANALLRAAEHTVESYGERLLAVLSGPHLAGSVGLCQTEEARYLGNNTI | not soluble
9 | MGSDKIHHHHHHMPTINSIQTTVNGVVKIVKPFNNDIAGEQFDPHVLQTLTAFKQPAILENDLAALRSGSLTPAIADPVGDAVTVQSRNITALNRTVSVEWLTPQNVINHTVLVYFHGGAFYGGVPGNNTVLLKLVAAKSHCEILNVDYSLAPEAPAPAGILDGLAIFQYLEQRDAETMITVAGDSAGANVIMAATNLNQQLGSNRINQQLLLYPVTAPNADHAGPLWDLAAFPIIDSQRAILTNYHDLFRQLDSIMTDYYVPENFDSHSPLISPLHQENFTMTPPTTIMVGEFDPFRPQAWAYAQRLAAADTATTFIQYQGLNHAFAPLVDQYWQSQDVAQVMAAALI | not soluble
10 | TRTLRGVMRVGLVAKCLLLKGDLDLELVLLCKEKPTTALLDKVADNLAIQLAAVTEDKYEILQSVDDAAIVIKNTKEPPLSLTIHLTSPVVREEMEKVLAGETLSVNDPPDVLDRQKCLAALASLRHAKWFQARANGLKSCVIVIRVLRDLCTRVPTWGPLRGWPLELLCEKSIGTANRPMGAGEALRRVLECLASGIVMPDGSGIYDPCEKEATDAIGHLDRQQREDITQSAQHALRLAAFGQLHKVLGMD | not soluble
11 | MQELYLLGVVPSRRFEAVVNSLSKTLDGPKTILEFWVVYRPKDVPPNLPRQPDSWLRLCSNIESHDETDTEWSKNTQWSMYLEGNSEPKREDKCGIRPVNRAKLTNGSVTEFVEKMGYEFSHEYIIQGLEYFFFDTTVRIYQTLIPSQQRSIKPPFHPMNEEQPWILHVYTHVADASNQVAMAKAEANLTKVKTLLSAFCDLKNVRL | soluble
12 | MSLIQTIENRLINGGELTLEEALLLASSADKEALYEAAHRITRYFMGDKFDTCSIINAKSGNCPEDCKWCAQSRHYAASIEKYGLLSAAVCAEQAAYNRRQGIGRFSLVASGRTASMNEIRQMAESYRAIKQRTDIKCCASLGLLSEEKLQILFDNGVTTYHCNMETAPSFFPSLCSTHTQDEKLATIRAARRVGMRVCSGGIIGMGETMEQRIEFAFYLHSINVYSIPINILQPIPGTPLERTLPLSEEEYLTTVALFRLINPRAFLRFSGGRAQLSPAVQRKAIYIGINAAITGDLLTTTGSKAAEDMQLVRECGFQVTNDTDWEVSYDHEGHHHHHH | not soluble
13 | MNGNQARNDIDEWLKTAACIKHPAGCVDQDGHSAFSDREGNLFQLAVPDAFSSLHLYGTLLELQPAVDGRVLASALAINAQKNVLRGSVIALNTENQELFVHHTVTLESLDRVALWQTLDNFVALTRELRSALRSQPVPAAKIESTHFNHLRRGF | not soluble
14 | MGSDKIHHHHHHMEQKLSESEQYLWHFIETHILEIPDYSIVKLSERANVSTATIVRTMKKKGYEGFTSFKHHLKDKENQNINFSALEKVDRGIRTAILKNEEEVTRTINMIEIGNIEDAIQKIKASRRIIIFARGFSELIAQEMMVKFQLAGKYCELHTDPEIIKNISKKLSKKDVALFVSLNGETQELVVAGKNCYDSEIGTILLTASKHSSLMKYIEIPFVGFKSEGSFFPDYEVRSRLPLSILARILLDAYALRTTT | not soluble
15 | MRKGLLAALLLLSACQVLEGSGYRVTEVQFLFPEATERWTYFYGEPRVVELDGRPLRLEAPQGENLWAFPGALWVEGSPVLRATYPSRPPVAEAVRGVSGSLLQVRAQAPLLATWLYDGVGWVRLTGSLREGEERTLVQPANYQTPRLFPLTEEESAVVLREVLARRGGKPVVVFELREPPLPPLRLSPAPDAYRIARLQVQYGLRLEPVMPPAPIFRVLGQGTQAAYQEEAPLALLANDPTSFNRLWALAVGNQLPRPAAPAVDFRNRSVAAFFWGLKPTGGYGLKVVGVTYAGERARVVLSLGAPKPGAITTQALTSPYVVLELQKVRRVVFADTSGKVLAEARD | soluble
16 | GMGYTLAEFLAHAIALETEAAERYVELADMMEAHNNLDTATVFRDMARFSTLHGDEIKQRSRALELPKLMSWQYRWKTPPEVGDENDIHYLMTPYHALRYARDNEIRGMEYYKEAAANSADPEVKRLGADFAAEEAEHVVALDKWIEKTPRPSITWSEDADPAQCVD | soluble
17 | MEARFAELLAAYCLEAQSGETVLVEAETPALPLLPHLKRALLRRGAYPLIRLSYPGEERDFLLFGGRWLEEVPEAELALYQRADKFLRVLSAENPLEAAAVDPALALRRQRAWRLLQEIRLGKRWALTLYPTVGYAVGAGMGTEEFRAYLERALFLDREDPVAAWQELSRFQEGLIRRLSAAKELRILAPGTDLRLSVAGRTWVNSDGRRNMPSGEVFTGPVEDSAEGEVRFNLPAFVGGRRVKGVYLRFARGQVVKARAKAGKAYLQAALATDEGARRLGEVGIGTNFALDRPTGLVLLDEKMGGTVHLALGRSYPEAGGRNESALHWDLVLSLREGRLLLDGTPLLEAGRFL | soluble
18 | MKKFKNILFATQGLPGHSDALEQAIQLAYNNRGQLAGLIAFPAFPADLQRYQEPYEQSYLNTLMETVEACRSQHHIHKDEVPFPLMVEHSEQPAVAIIKSALNHHIDLLIKEAEPMTHSQQGFKALDMTLLRKCPCPVWLHR | not soluble
19 | AGHMADGELNVDSLITRLLEVRGCRPGKIVQMTEAEVRGLCIKSREIFLSQPILLELEAPLKICGDIHGQYTDLLRLFEYGGFPPEANYLFLGDYVDRGKQSLETICLLLAYKIKYPENFFLLRGNHECASINRIYGFYDECKRRFNIKLWKTFTDCFNCLPIAAIVDEKIFCCHGGLSPDLQSMEQIRRIMRPTDVPDTGLLCDLLWSDPDKDVQGWGENDRGVSFTFGADVVSKFLNRHDLDLICRAHQVVEDGYEFFAKRQLVTLFSAPNYCGEFDNAGGMMSVDETLMCSFQILKPSEKKAKYQYGGLNSGRPVTPPRTANPPKKR | soluble
20 | MGSDKIHHHHHHMKSFVIEDEFWSLFPNAKIGVVICHSIDNSIKDENQYKDMISNSEEEALSYLKNEEFSSNEVIKVWREAFQKFKTKKGARSSIEALLKRVHKGNHIGTINPLVDIYNSISLRYAMPCGGEDIDAFAGDIRLTKAVGNESFVTLGTDKNEPPYEGEIVYKDNEGAICRCFNWRESVRTMLTENTKNAFLCIELIDETRVKEFEDALDTLAKTVQDNLGGNCKISTLDINNKSVVID | not soluble
21 | AEDIFGELFNEANNFYIRANSLQDRIDRLAVKVTQLDSTVEEVSLQDINMKKAFKSSTVQDQQVVSKNSIPNPVADIYNQSDKPPPLNILTPYRDDKKDGLKFYTDPSYFFDLWKEKMLQDTEDKRKEKRRQKEQKRIDGTTREVKKVRKARNRRQEWNMMAYDKELRPDNRLSQSVYHGASSEGSLSPDTRSHASDVTDYSYPATPNHSLHPQPVTPSYAAGDVPPHGPASQAAEHEYRPPSASARHMALNRPQQPPPPPPPQAPEGSQASAPMAPADYGMLPAQIIEYYNPSGPPPPPPPPVIPSAQTAFVSPLQMPMQPPFPASASSTHAAPPHPPSTGLLVTAPPPPGPPPPPPGPPGPGSSLSSSPMHGPPVAEAKRQEPAQPPISDARSDLLAAIRMGIQLKKVQEQREQEAKREPVGNDVATILSRRIAVEYSDSDDDSEFDENDWSD | soluble
22 | MGSDKIHHHHHHMEKTILVHAAACAPAESCGYVVNTSAGERYFPCQNLSAEPTMYFRMAPEDYLRAQAAGDVVALVHSHPDGLPFLSDVDRRLQVQSGLPWWLVCHDRIYTFRCVPFLTGRVFEHGVTDCYTLFRDAYHLAGIEMPDFSRGEDWWKNGENLYLDNLEATGFYRVSGEEAQSGDILICCFGSSVANHAAIYCGNGELLHHIPDQLSKRERYTDKWQRRTHSIWRHRAWHESAFTGIYNDLAAALASV | not soluble
